Measured values reported in patent US20100330090A1.

Key:
[1] = biological target: recombinant human Par-1 antigen (protease activated receptor-1) (human) (UniProt P25116); test: BLI (ForteBio Octet), Experiment 1, Fab at 1E-8 M
[2] = biological target: recombinant human Par-1 antigen (protease activated receptor-1) (human) (UniProt P25116); test: BLI (ForteBio Octet), Experiment 2, Fab at 2.5E-8 M

| Binder | Kd [1] [nM] | koff [1] [s⁻¹] | kon [1] [M⁻¹ s⁻¹] | Kd [2] [nM] | koff [2] [s⁻¹] | kon [2] [M⁻¹ s⁻¹] |
| --- | --- | --- | --- | --- | --- | --- |
| LDS896 (Fab, V domains shown, Fab constant regions not given) VH: EVQLVQSGAEVKKPGSSVKVSCKVSGGTFSNYVFNWVRQAPGQGLEWMGVINPHSGRTRYNQKFKGRVTMTTDTSTSTAYMELRSLTSDDTAVYYCARDDGPSHWYFDVWGQGTTVTVSS VL: DIVMTQSPLSLPVTPGEPASISCRSSQSLLHRNGNNYLEWYLQKPGQSPRLLIYKISNRFSGVPDRFSGSGAGTDFTLKISRVEAEDVGVYYCFQGSHVPFTFGQGTKLEIK | 1.18 | 0.000311 | 265000 | – | – | – |
| LDW653 (Fab, V domains shown, Fab constant regions not given) VH: QVQLVQSGAEVKKPGASVKVSCKASGYTFNSYYMNWVRQAPGQGLEWMGVIDPHGGRTRYNQKFKGRVTMTTDTSTSTVYMELSSLRSEDTAVYYCARDDGPSMWYFDVWGQGTTVTVSS VL: DIVMTQSPLSLPVTPGEPASISCRSSQSLLHRNGNNYLEWYLQKPGQSPRLLIYKISNRFSGVPDRFSGSGAGTDFTLKISRVEAEDVGVYYCFQGSSVPFTFGQGTKLEIK | – | – | – | 1.13 | 0.000293 | 259000 |
| LDS900 (Fab, V domains shown, Fab constant regions not given) VH: QVQLVQSGAEVKKPGASVKVSCKASGYTFNSYYMNWVRQAPGQGLEWMGVIDPHGGRTRYNQKFKGRVTMTTDTSTSTAYMELRSLTSDDTAVYYCARDDGPSLWYFDVWGQGTTVTVSS VL: DIVMTQSPLSLPVTPGEPASISCRSSQSLLHRNGNNYLEWYLQKPGQSPRLLIYKISNRFSGVPDRFSGSGAGTDFTLKISRVEAEDVGVYYCFQGSHVPFTFGQGTKLEIK | – | – | – | 1.47 | 0.000289 | 196000 |
